Measurements: PMC3193538
[ ]: non-standard residue; d: D form.

Target: human integrin protein αvβ3 (human) (UniProt P06756)
Test: SPR

With cyclo(RGD[dF]C) (also: conjugated to G5 PAMAM dendrimer, 2 peptides per dendrimer) [G5-2RGD (generation 5 PAMAM dendrimer displaying 2 cyclic RGD peptides)] as the binder, how does the koff read?
Its koff is 0.00132 s⁻¹.

Which koff does the source give for cyclo(RGD[dF]C) (also: conjugated to G5 PAMAM dendrimer, 3 peptides per dendrimer) [G5-3RGD (generation 5 PAMAM dendrimer displaying 3 cyclic RGD peptides)] here?
The koff was 0.00136 s⁻¹.

cyclo(RGD[dF]C) (also: conjugated to G5 PAMAM dendrimer, 7 peptides per dendrimer) [G5-7RGD (generation 5 PAMAM dendrimer displaying 7 cyclic RGD peptides)] was tested. Which koff did it give?
Its koff is 0.00155 s⁻¹.

How did the koff turn out when cyclo(RGD[dF]C) (also: conjugated to G5 PAMAM dendrimer, 10 peptides per dendrimer) [G5-10RGD (generation 5 PAMAM dendrimer displaying 10 cyclic RGD peptides)] was run?
Its koff is 0.00254 s⁻¹.
